T1: annexin V, P08758
T1 chain: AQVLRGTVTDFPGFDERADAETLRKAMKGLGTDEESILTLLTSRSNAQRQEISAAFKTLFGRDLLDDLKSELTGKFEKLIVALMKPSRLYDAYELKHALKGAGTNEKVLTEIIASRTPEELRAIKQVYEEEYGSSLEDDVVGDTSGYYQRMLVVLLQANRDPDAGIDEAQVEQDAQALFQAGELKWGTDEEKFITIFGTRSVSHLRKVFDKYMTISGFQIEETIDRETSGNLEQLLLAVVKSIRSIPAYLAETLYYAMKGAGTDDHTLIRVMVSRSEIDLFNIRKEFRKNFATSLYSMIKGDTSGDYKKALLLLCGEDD


Legend:
[1] = target: FITC-labeled, dephosphorylated casein
[2] = target: kidney membrane associated proteins
annexin V, P08758 = target: T1, annexin V, P08758

Protein	proteolytic activity, fluorescence at 535 nm of Dcasein-FITC [1]	proteolytic activity, SDS-PAGE with Coomassie Blue staining (β-casein)	cleavage in human kidney membrane extract, 2-dimensional gel electrophoresis [2]	cleavage in human kidney cytoplasmic extract, 2-dimensional gel electrophoresis (annexin V, P08758)
MBP-Omi-(134-458) (protein) AVPSPPPASPRSQYNFIADVVEKTAPAVVYIEILDRHPFLGREVPISNGSGFVVAADGLIVTNAHVVADRRRVRVRLLSGDTYEAVVTAVDPVADIATLRIQTKEPLPTLPLGRSADVRQGEFVVAMGSPFALQNTITSGIVSSAQRPARDLGLPQTNVEYIQTDAAIDFGNSGGPLVNLDGEVIGVNTMKVTAGISFAIPSDRLREFLHRGEKKNSSSGISGSQRRYIGVMMLTLSPSILAELQLREPSFPDVQHGVLIHKVILGSPAHRAGLRPGDVILAIGEQMVQNAEDVYEAVRTQSQLAVQIRRGRETLTLYVTPEVTE	there was a rapid increase in fluorescence for the first 20 min followed by a slower increase for the remaining 10 min of the assay	–	–	–
His-tagged Omi-(134-458) (protein) AVPSPPPASPRSQYNFIADVVEKTAPAVVYIEILDRHPFLGREVPISNGSGFVVAADGLIVTNAHVVADRRRVRVRLLSGDTYEAVVTAVDPVADIATLRIQTKEPLPTLPLGRSADVRQGEFVVAMGSPFALQNTITSGIVSSAQRPARDLGLPQTNVEYIQTDAAIDFGNSGGPLVNLDGEVIGVNTMKVTAGISFAIPSDRLREFLHRGEKKNSSSGISGSQRRYIGVMMLTLSPSILAELQLREPSFPDVQHGVLIHKVILGSPAHRAGLRPGDVILAIGEQMVQNAEDVYEAVRTQSQLAVQIRRGRETLTLYVTPEVTE	–	had substantial activity against β-casein, and after 30 min total degradation of the substrate occurred	No proteins were cleaved in the membrane bound fractions	two polypeptides (32 kD and 29 kD) in the human kidney cytoplasmic fraction were specifically cleaved by His-Omi
